The record followed here is paper PMC7182274 (PLoS Pathogens, 2020).

Assay [1] deals with F. novicida DnaK (F. novicida).
The target of a further assay is T1, ΔNClpB (Francisella tularensis, UniProt A0Q8N0).
T1 construct: gene clpB

Take “F. novicida ClpB (wild-type) (natural protein)”: the refolding of urea-denatured firefly luciferase with DnaK, DnaJ, GrpE and ATP in assay [1] was found to be 83%. As to `Nc1ncnc2c1ncn2[C@@H]1O[C@H](COP(=O)(O)OP(=O)(O)OP(=O)(O)O)[C@@H](O)[C@H]1O` [ATP], on ΔNClpB, the ATPase activity result is given as “ΔNClpB had a slightly increased basal ATPase activity in the absence of casein”.
